Source: US20110293610A1 (published 2011)

Experiments:
[1] = biological target: T1, B Lymphocyte Stimulator, soluble form (human) (human, UniProt Q9Y275 134-285, biotinylated with NHS-biotin where used as biotinylated B Lymphocyte Stimulator); experiment: BIAcore, IgG1 captured on low-density Protein A surface, BLyS passed over
T1 construct: Coated on plastic, captured on streptavidin plates, amine-coupled to a CM5 chip or free in solution, depending on the assay; also called BLyS; immobilized B Lymphocyte Stimulator
Protocol: Briefly, antibodies were captured on low-density Protein A surfaces and B Lymphocyte Stimulator was passed over at various flow rates. The binding of B Lymphocyte Stimulator to immobilized antibody was detected by changes in […] that were proportional to the amount of bound B Lymphocyte Stimulator. Binding values were calculated using software provided by the manufacturer.

[2] = biological target: T1, B Lymphocyte Stimulator, soluble form …; experiment: cell-based or functional assay
[3] = biological target: T2, HIS-tagged B Lymphocyte Stimulator (human, UniProt Q9Y275 71-285); experiment: phage ELISA
T2 construct: Expressed in E. coli from pQE9 and purified; also called histidine-tagged B Lymphocyte Stimulator; HIS-B Lymphocyte Stimulator; not shown: histidine tag of the pQE9 vector

[4] = biological target: T3, membrane-bound B Lymphocyte Stimulator on U937 plasma membrane preparations (human, UniProt Q9Y275 1-285); experiment: phage ELISA
T3 construct: Natural protein in plasma membrane fractions of the human cell line U937 coated on ELISA plates; also called U937 plasma membranes; U937 membranes

[5] = biological target: T1, B Lymphocyte Stimulator, soluble form …; experiment: phage ELISA
[6] = biological target: T1, B Lymphocyte Stimulator, soluble form …; experiment: BIAcore 2000, purified scFv over low density (500 RU) BLyS surface
TNF-beta = biological target: T4, TNF-beta (human, UniProt P01374 35-205); experiment: phage ELISA
T4 construct: also called TNFβ; Tumour Necrosis Factor-beta
T4 sequence (looked up): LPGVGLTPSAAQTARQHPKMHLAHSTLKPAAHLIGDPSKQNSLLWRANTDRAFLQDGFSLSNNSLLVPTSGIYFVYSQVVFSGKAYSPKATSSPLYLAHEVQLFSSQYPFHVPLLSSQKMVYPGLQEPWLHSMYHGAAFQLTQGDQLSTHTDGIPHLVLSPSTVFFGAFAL

Bovine serum albumin = biological target: T5, Bovine serum albumin (bovine, UniProt P02769 25-607); experiment: phage ELISA
T5 construct: also called BSA
T5 sequence (P02769 25-607 limits assumed): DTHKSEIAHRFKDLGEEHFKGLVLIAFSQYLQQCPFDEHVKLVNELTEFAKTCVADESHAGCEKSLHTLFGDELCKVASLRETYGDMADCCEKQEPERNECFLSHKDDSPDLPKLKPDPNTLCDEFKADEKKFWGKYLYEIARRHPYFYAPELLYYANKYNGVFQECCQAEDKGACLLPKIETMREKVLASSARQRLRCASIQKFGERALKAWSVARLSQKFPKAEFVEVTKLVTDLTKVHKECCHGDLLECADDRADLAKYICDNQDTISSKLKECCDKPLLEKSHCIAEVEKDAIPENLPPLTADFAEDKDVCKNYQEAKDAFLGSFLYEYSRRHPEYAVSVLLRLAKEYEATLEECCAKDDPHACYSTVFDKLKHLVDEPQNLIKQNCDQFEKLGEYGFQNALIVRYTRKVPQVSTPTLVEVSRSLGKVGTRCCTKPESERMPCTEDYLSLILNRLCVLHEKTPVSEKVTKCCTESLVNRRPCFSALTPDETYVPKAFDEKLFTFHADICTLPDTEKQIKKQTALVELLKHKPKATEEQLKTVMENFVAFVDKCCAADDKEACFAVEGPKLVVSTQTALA

LIGHT = LIGHT (human, UniProt O43557 74-240, limits assumed); experiment: phage ELISA
LIGHT, sequence (O43557 74-240 limits assumed): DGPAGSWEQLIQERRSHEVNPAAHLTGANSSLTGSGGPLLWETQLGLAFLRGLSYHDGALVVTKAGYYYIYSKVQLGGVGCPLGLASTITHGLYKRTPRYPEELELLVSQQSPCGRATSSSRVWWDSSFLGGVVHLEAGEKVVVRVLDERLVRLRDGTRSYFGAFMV

TRAIL = biological target: T6, TRAIL (human, UniProt P50591 114-281); experiment: phage ELISA
T6 construct: also called TNF-related apoptosis inducing ligand
T6 sequence (P50591 114-281 limits assumed): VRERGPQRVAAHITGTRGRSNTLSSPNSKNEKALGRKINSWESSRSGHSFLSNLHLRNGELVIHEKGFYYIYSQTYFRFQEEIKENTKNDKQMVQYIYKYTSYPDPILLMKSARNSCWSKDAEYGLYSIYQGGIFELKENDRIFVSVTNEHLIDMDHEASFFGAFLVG

TNF-alpha = biological target: T7, TNF-alpha (human, UniProt P01375 77-233); experiment: phage ELISA
T7 construct: also called TNFα; TNF-α
T7 sequence (P01375 77-233 limits assumed): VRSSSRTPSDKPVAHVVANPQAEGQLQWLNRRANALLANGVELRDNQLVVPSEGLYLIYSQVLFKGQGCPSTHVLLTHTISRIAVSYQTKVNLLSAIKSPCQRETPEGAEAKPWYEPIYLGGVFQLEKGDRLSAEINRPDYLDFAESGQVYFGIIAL

[7] = biological target: T1, B Lymphocyte Stimulator, soluble form …; experiment: phage ELISA, biotinylated BLyS on streptavidin plates
[8] = biological target: T2, HIS-tagged B Lymphocyte Stimulator; experiment: BIAcore, purified scFv over low density (500 RU) HIS-BLyS surface
Protocol: The chip containing the low density HIS-B Lymphocyte Stimulator surface was inserted into the BIAcore. […] The dilution series was then injected sequentially over the blank control (flow cell 1) and low density HIS-B Lymphocyte Stimulator surface (flow cell 2) using the following program: […]

[9] = biological target: T8, biotinylated B Lymphocyte Stimulator, soluble form (human, UniProt Q9Y275 134-285, biotinylated with NHS-biotin, molar ratio 20:1 biotin:protein); experiment: purified scFv, receptor binding inhibition on IM9 cells
T8 construct: also called bio-B Lymphocyte Stimulator; free B Lymphocyte Stimulator

B1: I006D08 (whole IgG1) (antibody, V domains shown)
VH: QVQLQQSGAEVKKPGSSVRVSCKASGGTFNNNAINWVRQAPGQGLEWMGGIIPMFGTAKYSQNFQGRVAITADESTSTASMELSSLRSEDTAVYYCARSRDLLLFPHYGMDVWGRGTMVTVSS
VL: SSELTQDPAVSVALGQTVRVTCQGDSLRSYYASWYQQKPGQAPVLVIYGKNNRPSGIPDRFSGSSSGNTASLTITGAQAEDEADYYCNSRDSSGNHWVFGGGTELTVLG
notes: constant regions (human IgG1)
With B1 the “fold higher Kd than I116A01” value [1] was ~2 fold, the “fold higher off rate (kd) than I116A01” value [1] was 2 fold and the “IC50 for the inhibition of human B Lymphocyte Stimulator induced-proliferation of murine B cells (3H-thymidine incorporation)” value [2] was 0.09 nM.

B2: I079C01 (scFv)
scFv: EVQLVESGGGLVQPGGSLRLSCAASGFTFSDYGMHWVRQRPGKGLEWIAFIGSDGSNKYYGDTVKGRFTISRDNAKNSLYLQMNSLRAEGTAVYYCARDWDMDVWGQGTMVTVSSGGGGSGGGGSGGGGSHVILTQPRSVSGSPGQSVTISCTGTSSDVGGYHYVSWYQQHPGKAPRLMIYEVTKRPSGVSNRFSGSKSGNTASLTISGVQAEDEADYYCSSYTSASTVIFGGGTKLTVLG
B2: binds [3]; binds [4]; no binding [5].

B3: I082A02 (scFv)
scFv: QVQLVQSGAEVKEPGASVKISCEASGYTFTNNFIDWVRQAPGQGLEWMGTISGSTGNTYYKQGFQGRVTMTRDTATSTAYLEVRGLTSEDTAIYFCARPAASSRGPKDAFDIWGQGTLVTVSSGGGGSGGGGSGGGGSQSVLTQPPSVSAAPGQKVTISCSGSTSNIGNNYVSWYQQHPGKAPKLMIYDVSKRPSGVPDRFSGSKSGNSASLDISGLQSEDEADYYCAAWDDSLSEFLFGTGTKLTVLG
B3: binds [3]; binds [4]; no binding [5].

B4: I003C02 (scFv)
scFv: EVQLVQSGAEVKKPGSSVKVSCQASGGNFNSYGVSWVRQAPGQGLEWMGRIIPNVGTANYAQKFQGRVTITADKLTSTVYLEVRSLRSEDTAVYYCARGDYDILTGYPAECFQIWGQGTMVTVSSGGGGSGGGGSGGGGSAQAVLTQPSSASGTPGQRVTISCSGSTSNIGTNTVNWYQQLPGTAPKLLIYSNHLRPSGVPDRFSGSKSGTSASLAISGLQSEDEADYYCSARDDSLNGVVFGGGTKVTVLG
B4 was tested, and the koff [6] was 0.006 s⁻¹.

B5: I075F12 (scFv)
scFv: QVQLVQSGAEVKKPGSSVKVSCKASGGTVSSRTISWVRQAPGQGLEWMGGSLPPSGAPIYAQKFQGRVAITADALTNTAFMELRSLKSDDTAVYYCARDQGRYLDLWGQGTMVTVSSGGGGSGGGGSGGGGSAQAVLTQPSSASGTPGQRATISCSGSSSDIGINAVNWYKQLPRTAPKLLIYRNNQRPSGVPDRFSGSKSGTSASLAIIGLQSEDEADYYCATWDDSLTAYVFGTGTKVTVLG
B5: no binding (TNF-beta); no binding (Bovine serum albumin); no binding (LIGHT). B5: no binding (TRAIL); no binding (TNF-alpha); binds [7].

B6: I082C03 (scFv)
scFv: QVQLVQSGSEVKKPGASVKVSCKTSGYSFTGYFIHWVRQAPGQGLEWMGWINPNSGGTNLAQKFQGRVTMTRDTSISTAYMELSSLKSDDTAVYYCARDASRDIVVLPLAIWGKGTLVTVSSGGGGSGGGGSGGGGSDIQMTQSPSTLSASIGDRVTITCRASEGIYHWLAWYQQKPGKAPKLLIYKASSLASGAPSRFSGSGSGTDFTLTISSLQPDDFATYYCQQYSNYPLTFGGGTKLEIKR
With B6 the Kd [8] was 20 nM and the koff [8] was 0.002 s⁻¹.

B7: I003F12S (scFv)
scFv: QVQLLQSAAELKKPGQSLKISCKGSGFTFTTYWIGWVRQLPGKGLEWMGIIYPGDSHTTYSPSFEGHVNISVDKSINTAYLQWSSLKASDTAMYYCARHDDDVLTGYYFESWGQGTMVTVSSGGGGSGGGGSGGGGSQSVLTQPASVSGSPGQSITISCTGTSSDVGGYNYVSWYQQHPGKAPKLMIYEGSKRPSGVSNRFSGSKSGNTASLTISGLQAEDEADYYCSSYTTRSTRVFGGGTKLTVLG
B7: binds [9].
